B1: Recombinant, soluble huMIF receptor ectodomain (sCD74 73-232) (domain or fragment, UniProt P04233-2 73-232, looked up)
chain: QQQGRLDKLTVTSQNLQLENLRMKLPKPPKPVSKMRMATPLLMQALPMGALPQGPMQNATKYGNMTEDHVMHLLQNADPLKVYPPLKGSFPENLRHLKNTMETIDWKVFESWMHHWLLFEMSRHSLEQKPTDAPPKESLELEDPSSGLGVTKQDLGPVPM

Columns and labels:
AUC = biological target: the molecule itself; test: AUC
[1] = biological target: B1; test: ELISA
Biotinylated huMIF = Biotinylated huMIF (human, UniProt P14174 2-115, biotin (sites not given)); test: ELISA

Binder	stoichiometry N (AUC)	binding result [1]	binding result (Biotinylated huMIF)
ΔC5 huMIF(1-109) (domain or fragment, human, UniProt P14174 2-110, looked up) PMFIVNTNVPRASVPDGFLSELTQQLAQATGKPPQYIAVHVVPDQLMAFGGSSEPCALCSLHSIGKIGGAQNRSYSKLLCGLLAERLRISPDRVYINYYDMNAANVGWN	3	binds	
B1			binds
P107 huMIF (natural protein, human, UniProt P14174 2-115, looked up) PMFIVNTNVPRASVPDGFLSELTQQLAQATGKPPQYIAVHVVPDQLMAFGGSSEPCALCSLHSIGKIGGAQNRSYSKLLCGLLAERLRISPDRVYINYYDMNAANVPGWNNSTFA	3		
ΔC10 huMIF(1-104) (domain or fragment, human, UniProt P14174 2-105, looked up) PMFIVNTNVPRASVPDGFLSELTQQLAQATGKPPQYIAVHVVPDQLMAFGGSSEPCALCSLHSIGKIGGAQNRSYSKLLCGLLAERLRISPDRVYINYYDMNAA	3	binds	
